This is an account of results in PMC4787811 (Nucleic Acids Research, 2015).

One may read the stoichiometry N as a count of units in the complex or per binding partner.

Data set [1] concerns the molecule itself. The data set is described as follows: negative-stain EM, single particle 3D reconstruction.
The target in data set [2] is T1, E1FL (full-length E1) (bovine papillomavirus (BPV-1), UniProt P03116 1-605). The data set is described as follows: hydroxyl radical footprinting. The note with it: protein: recombinant; tags: GST fusion, tag cleaved with thrombin and removed; chain copies: 6; label: 5'-32P on top strand; fork: 30 bp duplex, 3' T20 and 5' C8 arms.
The target of data set [3] is T1, E1FL (full-length E1). Kind of data set: hydroxyl radical footprinting; 10-fold excess unlabelled T18 competitor; similar protection to top strand. The note with it: protein: recombinant; tags: GST fusion, tag cleaved with thrombin and removed; chain copies: 6; label: 3'-32P on bottom strand; fork: 3' T20 and 5' C8 arms; 29 bp as printed before labelling.
Data set [4] concerns the target T1, E1FL (full-length E1). The data set is described as follows: gel filtration (SEC) and negative stain EM; no nucleotide cofactor; 50 uM E1, E1:DNA 6:1. The note with it: protein: recombinant; tags: GST fusion, tag cleaved with thrombin and removed; chain copies: 6; single strand. (SEC sorts molecules by how far they enter the pores of the column.)
Data set [5] deals with T1, E1FL (full-length E1). The data set is described as follows: gel filtration (SEC) and negative stain EM (20 A); streptavidin (MTS) bound to biotin. The note with it: protein: recombinant; tags: GST fusion, tag cleaved with thrombin and removed; chain copies: 6; label: 5'-biotin on top strand (dsDNA end); fork: 10 bp duplex, 3' T20 and 5' C10 arms.
The target of data set [6] is T1, E1FL (full-length E1). Kind of data set: gel filtration (SEC) and negative stain EM (20 A); streptavidin (MTS) and anti-digoxigenin Fab bound to labels. The note with it: protein: recombinant; tags: GST fusion, tag cleaved with thrombin and removed; chain copies: 6; label: 5'-biotin on top strand; 5'-digoxigenin on bottom strand; fork: 10 bp duplex, 3' T20 and 5' C10 arms.

For data set [7], the target named is T1, E1FL (full-length E1). Kind of data set: gel filtration (SEC); no nucleotide cofactor; 50 uM E1, E1:DNA 6:1. The note with it: protein: recombinant; tags: GST fusion, tag cleaved with thrombin and removed; chain copies: 6; fork: 10 bp duplex, 3' T20 and 5' C10 arms.

B1: E1 helicase domain (residues 299-605) (domain or fragment)
chain: QTTLNESLQTEKFDFGTMVQWAYDHKYAEESKIAYEYALAAGSDSNARAFLATNSQAKHVKDCATMVRHYLRAETQALSMPAYIKARCKLATGEGSWKSILTFFNYQNIELITFINALKLWLKGIPKKNCLAFIGPPNTGKSMLCNSLIHFLGGSVLSFANHKSHFWLASLADTRAALVDDATHACWRYFDTYLRNALDGYPVSIDRKHKAAVQIKAPPLLVTSNIDVQAEDRYLYLHSRVQTFRFEQPCTDESGEQPFNITDADWKSFFVRLWGRLDLIDEEEDSEEDGDSMRTFTCSARNTNAVD
B1: in data set [1], the binding result is reported as “binds”.

B2: full length BPV-1 E1 helicase (enzyme)
chain: MANDKGSNWDSGLGCSYLLTEAECESDKENEEPGAGVELSVESDRYDSQDEDFVDNASVFQGNHLEVFQALEKKAGEEQILNLKRKVLGSSQNSSGSEASETPVKRRKSGAKRRLFAENEANRVLTPLQVQGEGEGRQELNEEQAISHLHLQLVKSKNATVFKLGLFKSLFLCSFHDITRLFKNDKTTNQQWVLAVFGLAEVFFEASFELLKKQCSFLQMQKRSHEGGTCAVYLICFNTAKSRETVRNLMANTLNVREECLMLQPAKIRGLSAALFWFKSSLSPATLKHGALPEWIRAQTTLNESLQTEKFDFGTMVQWAYDHKYAEESKIAYEYALAAGSDSNARAFLATNSQAKHVKDCATMVRHYLRAETQALSMPAYIKARCKLATGEGSWKSILTFFNYQNIELITFINALKLWLKGIPKKNCLAFIGPPNTGKSMLCNSLIHFLGGSVLSFANHKSHFWLASLADTRAALVDDATHACWRYFDTYLRNALDGYPVSIDRKHKAAVQIKAPPLLVTSNIDVQAEDRYLYLHSRVQTFRFEQPCTDESGEQPFNITDADWKSFFVRLWGRLDLIDEEEDSEEDGDSMRTFTCSARNTNAVD
Regarding B2, the “stoichiometry N” value in data set [1] amounted to 6.

B3: 30 bp fork, 3' T20 and 5' C8, top strand labelled (dsDNA)
DNA 1: GGCTTGTATTTCACACCGCACCTCAGCGCGTTTTTTTTTTTTTTTTTTTT
DNA 2: CCCCCCCCCGCGCTGAGGTGCGGTGTGAAATACAAGCC
In the case of B3, in the data set with E1FL (full-length E1) [2], the binding result is on record as “binds”.

B4: 30 bp fork, 3' T20 and 5' C8, bottom strand labelled (dsDNA)
DNA 1: B3 DNA 1
DNA 2: CCCCCCCCCGCGCTGAGGTGCGGTGTGAAATACAAG
As for B4, in the data set with E1FL (full-length E1) [3], the binding result was “binds”.

B5: ssDNA T30 (ssDNA)
DNA: TTTTTTTTTTTTTTTTTTTTTTTTTTTTTT
With B5, in the data set with E1FL (full-length E1) [4], the binding result is reported as “binds”.

B6: RFJ 10 bp fork, 5' dsDNA biotin (dsDNA)
DNA 1: CCTCAGCGCGTTTTTTTTTTTTTTTTTTTT
DNA 2: CCCCCCCCCCCGCGCTGAGG
On to B6, for which, in the data set with E1FL (full-length E1) [5], the binding result was “binds”.

B7: RFJ 10 bp fork, 5' dsDNA biotin and 5' ssDNA digoxigenin (dsDNA)
DNA 1: B6 DNA 1
DNA 2: CCCCCCCCCCCGCGCTGAGG
Turning to B7, the binding result in the data set with E1FL (full-length E1) [6] was “binds”.

B8: RFJ 10 bp fork, 3' T20 and 5' C10 (dsDNA)
DNA 1: B6 DNA 1
DNA 2: CCCCCCCCCCCGCGCTGAGG
As for B8, in the data set with E1FL (full-length E1) [7], the binding result is “binds”.
